Data set [1] concerns the target T1, LeuO-S120D-His6 (Escherichia coli K12, UniProt P10151 1-314, S120D).
T1 sequence: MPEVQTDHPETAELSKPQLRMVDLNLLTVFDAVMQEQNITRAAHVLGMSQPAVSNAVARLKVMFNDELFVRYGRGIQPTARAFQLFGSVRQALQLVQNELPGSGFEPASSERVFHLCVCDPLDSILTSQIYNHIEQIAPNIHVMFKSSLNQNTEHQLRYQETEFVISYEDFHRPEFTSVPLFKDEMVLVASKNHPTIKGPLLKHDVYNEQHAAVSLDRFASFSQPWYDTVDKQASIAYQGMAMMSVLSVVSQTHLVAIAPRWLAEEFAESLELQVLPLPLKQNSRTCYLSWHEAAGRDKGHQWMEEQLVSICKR
The data set can be described thus: SPR.

For the next data set, the target named is T2, LeuO-DBD-His6 (Escherichia coli K12, UniProt P10151 1-101).
T2 sequence: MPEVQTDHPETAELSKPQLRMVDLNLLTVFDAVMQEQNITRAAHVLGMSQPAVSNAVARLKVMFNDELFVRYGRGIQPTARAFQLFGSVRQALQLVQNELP
The experiment in a line: SPR. (In general: In SPR one partner is held on a chip, and binding of the other changes the refractive index at the surface.)

Data set [2] addresses T3, LeuO-His6 (wild type) (Escherichia coli K12, UniProt P10151 1-314).
T3 sequence: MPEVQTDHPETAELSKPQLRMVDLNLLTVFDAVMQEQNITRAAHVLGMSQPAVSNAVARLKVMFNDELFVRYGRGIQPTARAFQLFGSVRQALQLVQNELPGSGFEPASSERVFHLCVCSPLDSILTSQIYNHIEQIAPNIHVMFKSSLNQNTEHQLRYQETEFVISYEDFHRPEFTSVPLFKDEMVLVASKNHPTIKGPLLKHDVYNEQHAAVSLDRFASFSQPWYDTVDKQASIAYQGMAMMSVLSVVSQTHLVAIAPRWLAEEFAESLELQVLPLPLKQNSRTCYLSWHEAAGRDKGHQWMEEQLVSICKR
The data set can be described thus: SPR.

The target of data set [3] is T3, LeuO-His6 (wild type). The data set can be described thus: SPR. The source holds these as a separate data set.
Data set [4] concerns the target T1, LeuO-S120D-His6. The data set can be described thus: SPR. The source holds these as a separate data set.
The data set “crystal structure” concerns the molecule itself. The experiment in a line: crystal structure.
Data set [5] addresses T3, LeuO-His6 (wild type). The experiment in a line: gel filtration. (In gel filtration, larger molecules generally elute earlier.)
Data set [6] concerns the target T1, LeuO-S120D-His6. The experiment in a line: gel filtration.
The data set “SEC” concerns the molecule itself. The data set can be described thus: SEC.

B1: SPR fragment C, scrambled (60 bp) (dsDNA)
DNA 1: GGGGGGTAAATTACATAATGCGATTAAAATTTATTTTCAAAAGTTTAATTTAACATTGAATTTATGGGGG
DNA 2: CCCCCATAAATTCAATGTTAAATTAAACTTTTGAAAATAAATTTTAATCGCATTATGTAATTTACCCCCC
Regarding B1, the binding result in the data set with LeuO-S120D-His6 [1], in the data set with LeuO-DBD-His6 and with LeuO-His6 (wild type) [2] was “no binding” each time.

B2: SPR fragment A, cas LeuO site II (60 bp) (dsDNA)
DNA 1: GGGGGTTTATATTCACAGTATGAATATTTTATGTAATAAAATTCATGGTAATTATTATAACTAAAGGGGG
DNA 2: CCCCCTTTAGTTATAATAATTACCATGAATTTTATTACATAAAATATTCATACTGTGAATATAAACCCCC
In the case of B2, the Kd (usually the concentration at which binding is half-saturated) in the data set with LeuO-His6 (wild type) [3] turned out to be 0.7 nM; in the data set with LeuO-S120D-His6 [4] it was 0.2 nM.

B3: LeuO-S120D effector-binding domain, C-terminally histidine-tagged (LeuO-S120D-EBD_(His6)) (domain or fragment, Escherichia coli)
chain: SSERVFHLCVCDPLDSILTSQIYNHIEQIAPNIHVMFKSSLNQNTEHQLRYQETEFVISYEDFHRPEFTSVPLFKDEMVLVASKNHPTIKGPLLKHDVYNEQHAAVSLDRFASFSQPWYDTVDKQASIAYQGMAMMSVLSVVSQTHLVAIAPRWLAEEFAESLELQVLPLPLKQNSRTCYLSWHEAAGRDKGHQWMEEQLVSICKR
In the case of B3, in “crystal structure”, the binding result is “binds”.

B4: gel filtration fragment, cas LeuO site II (60 bp) (dsDNA)
DNA 1: TTTATATTCACAGTATGAATATTTTATGTAATAAAATTCATGGTAATTATTATAACTAAA
DNA 2: TTTAGTTATAATAATTACCATGAATTTTATTACATAAAATATTCATACTGTGAATATAAA
Take B4: the binding result in the data set with LeuO-His6 (wild type) [5] and in the data set with LeuO-S120D-His6 [6] was “binds” in each case.

B5: SPR fragment B, cas core-site (25 bp) (dsDNA)
DNA 1: GGGGGTTTATATTCACAGTATGAATATTTTGGGGG
DNA 2: CCCCCAAAATATTCATACTGTGAATATAAACCCCC
For B5, the Kd with LeuO-His6 (wild type) [3] was 0.9 nM; with LeuO-S120D-His6 [4] it was 0.6 nM.

B6: LeuO, C-terminally histidine-tagged (LeuO_(His6)) (natural protein, Escherichia coli, UniProt P10151 1-314, looked up)
chain: MPEVQTDHPETAELSKPQLRMVDLNLLTVFDAVMQEQNITRAAHVLGMSQPAVSNAVARLKVMFNDELFVRYGRGIQPTARAFQLFGSVRQALQLVQNELPGSGFEPASSERVFHLCVCSPLDSILTSQIYNHIEQIAPNIHVMFKSSLNQNTEHQLRYQETEFVISYEDFHRPEFTSVPLFKDEMVLVASKNHPTIKGPLLKHDVYNEQHAAVSLDRFASFSQPWYDTVDKQASIAYQGMAMMSVLSVVSQTHLVAIAPRWLAEEFAESLELQVLPLPLKQNSRTCYLSWHEAAGRDKGHQWMEEQLVSICKR
With B6, the stoichiometry N – broadly, a count of units in the complex or per binding partner – in the data set “SEC” came out at 4.

B7: LeuO-S120D, C-terminally histidine-tagged (LeuO-S120D_(His6)) (natural protein, Escherichia coli, UniProt P10151 1-314, looked up)
chain: MPEVQTDHPETAELSKPQLRMVDLNLLTVFDAVMQEQNITRAAHVLGMSQPAVSNAVARLKVMFNDELFVRYGRGIQPTARAFQLFGSVRQALQLVQNELPGSGFEPASSERVFHLCVCDPLDSILTSQIYNHIEQIAPNIHVMFKSSLNQNTEHQLRYQETEFVISYEDFHRPEFTSVPLFKDEMVLVASKNHPTIKGPLLKHDVYNEQHAAVSLDRFASFSQPWYDTVDKQASIAYQGMAMMSVLSVVSQTHLVAIAPRWLAEEFAESLELQVLPLPLKQNSRTCYLSWHEAAGRDKGHQWMEEQLVSICKR
Regarding B7, the “stoichiometry N” value in “SEC” stood at 4.

Values taken from publication PMC6698644 (Nucleic Acids Research, 2019).
